Test results reported in the supplement of paper PMC10201428.
± gives the standard deviation of the averaged measurements.

Assays:
[1] = test system: VchCAST RNA-guided transposition machinery (E. coli BL21(DE3) host, lacZ target); assay: relative integration efficiency (T-LR orientation) vs wild-type transposon end (log2 (normalized fold change)); transposon end mutated: left end; higher = more efficient transposition
In short: (§1)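 Pools of 1549 left-end or 1849 right-end barcoded transposon variants were cloned into a pUC57 mini-transposon donor and co-transformed into E. coli BL21(DE3) with a T7-driven effector plasmid carrying a CRISPR array, tniQ-cas8-cas7-cas6 and tnsA-tnsB-tnsC. Plating used 0.1 mM IPTG at 37°C for 18 h, and input plasmids and genomic integration junctions were PCR-amplified for Illumina sequencing, with two biological output replicates and four reference barcodes. Relative integration efficiency is the log-transformed fold change of output over input barcode abundance, normalised to the reference barcodes.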

[2] = test system: VchCAST RNA-guided transposition machinery (E. coli BL21(DE3) host, lacZ target); assay: relative integration efficiency (T-RL orientation) vs wild-type transposon end (log2 (normalized fold change)); transposon end mutated: left end; higher = more efficient transposition
In short: as §1

| Sequence | relative integration efficiency (log2) [1] | relative integration efficiency (log2) [2] |
| --- | --- | --- |
| AATGTTGTTGATGCAACCATAAAGTGATATTTACGCCGGCGGGCGCCGACTACCAGGCCAACACCCCCAACCATATATTGATATCTCACAAAACAACCATAAGTTGATATTTTTGTGAATCGAGTATTTCAGCAAAACTACTGCAGTAAGAA | -2.85 ± 1.2 | -3.42 ± 1.2 |
| AATGTTGTTGATGCAACCATAAAGTGATATTTACGTCTGTACAGCGCACAGAAGCTGGGAACTCGGCCAACCATATATTGATATCTCACAAAACAACCATAAGTTGATATTTTTGTGAATCGAGTATTTCAGCAAAACTACTGCAGTAAGAA | -3.36 ± 2.2 | -3.56 ± 1.1 |
| AATGTTGTTGATGCAACCATAAAGTGATATTTACTAGGATTCATGTCAACGTGCAAGCTTAGTTCGACAACCATATATTGATATCTCACAAAACAACCATAAGTTGATATTTTTGTGAATCGAGTATTTCAGCAAAACTACTGCAGTAAGAA | -5.46 ± 2.5 | -5.16 ± 1 |
| AATGTTGTTGATGCAACCATAAAGTGATATTTACTTAAGCGAGTCTGTCCTTTCTGACTGTCGATCCCAACCATATATTGATATCTCACAAAACAACCATAAGTTGATATTTTTGTGAATCGAGTATTTCAGCAAAACTACTGCAGTAAGAA | -3.45 ± 1.6 | -3.4 ± 1.1 |
| AATGTTGTTGATGCAACCATAAAGTGATATTTAGACGTCCTTAACTCTGGCAGGGAGTTCAAGGGACCAACCATATATTGATATCTCACAAAACAACCATAAGTTGATATTTTTGTGAATCGAGTATTTCAGCAAAACTACTGCAGTAAGAA | -3.47 ± 2.7 | -2.69 ± 1.2 |
| AATGTTGTTGATGCAACCATAAAGTGATATTTAGCCGCTTCCGGGGCTGCCCTCTAAGCGCGAGCGCCAACCATATATTGATATCTCACAAAACAACCATAAGTTGATATTTTTGTGAATCGAGTATTTCAGCAAAACTACTGCAGTAAGAA | -0.565 ± 0.97 | -3.92 ± 1.2 |
| AATGTTGTTGATGCAACCATAAAGTGATATTTAGGCAGTGAGCGCAACGCAATTCTTAACCACAAAACAACCATATATTGATATCTCACAAAACAACCATAAGTTGATATTTTTGTGAATCGAGTATTTCAGCAAAACTACTGCAGTAAGAA | -3.58 ± 0.71 | -4.22 ± 1.2 |
| AATGTTGTTGATGCAACCATAAAGTGATATTTATAATTATTTATAATCAGCAACTTAACCACAAAACAACCATATATTGATATCTCACAAAACAACCATAAGTTGATATTTTTGTGAATCGAGTATTTCAGCAAAACTACTGCAGTAAGAAA | -0.645 ± 0.95 | -0.877 ± 0.61 |
| AATGTTGTTGATGCAACCATAAAGTGATATTTATACCGTTCGTATAATGTATGCTATACCAAGTTATCAACCATATATTGATATCTCACAAAACAACCATAAGTTGATATTTTTGTGAATCGAGTATTTCAGCAAAACTACTGCAGTAAGAA | -3.21 ± 0.88 | -4.32 ± 1.2 |
| AATGTTGTTGATGCAACCATAAAGTGATATTTATTGTGAGCGGATAACAATTGTGAGCGGATAACAACAACCATATATTGATATCTCACAAAACAACCATAAGTTGATATTTTTGTGAATCGAGTATTTCAGCAAAACTACTGCAGTAAGAA | -6.162 ± 0.037 | -6.71 ± 0.35 |
| AATGTTGTTGATGCAACCATAAAGTGATATTTATTTATGGCTAGCTCAGTCCTAGGTACAATGCTAGCAACCATATATTGATATCTCACAAAACAACCATAAGTTGATATTTTTGTGAATCGAGTATTTCAGCAAAACTACTGCAGTAAGAA | -2.71 ± 0.58 | -4.66 ± 0.6 |
| AATGTTGTTGATGCAACCATAAAGTGATATTTCCGCCGGCGGGCGCCGACTACCAGGCCAACACCCCACCAACGCGCGGTCGCGAGACACCCCACCAACGCCTGGTCGCGGGGGTGTCCGATCTGATTTCAGCAAAACTACTGCAGTAAGAA | -5 ± 1.2 | -6.65 ± 1.1 |
| AATGTTGTTGATGCAACCATAAAGTGATATTTGCTAGCACTATACCTAGGACTGAGCTAGCCGTCAACAACCATATATTGATATCTCACAAAACAACCATAAGTTGATATTTTTGTGAATCGAGTATTTCAGCAAAACTACTGCAGTAAGAA | < -10 | -5.87 ± 1 |
| AATGTTGTTGATGCAACCATAAAGTGATATTTGCTAGCATTGTACCTAGGACTGAGCTAGCCATAAACAACCATATATTGATATCTCACAAAACAACCATAAGTTGATATTTTTGTGAATCGAGTATTTCAGCAAAACTACTGCAGTAAGAA | -4.41 ± 1.3 | -3.5 ± 0.79 |
| AATGTTGTTGATGCAACCATAAAGTGATCGGGCATAATTATTTATAATCAGCAACTTAACCACAAAACAACCATATATTGATCGAGAACAAAACAACCATAAGTTGATCGGGGTGTGAATCGAGTATTTCAGCAAAACTACTGCAGTAAGAA | -3.33 ± 1.4 | -3.68 ± 1.3 |
| AATGTTGTTGATGCAACCATAAAGTGATCGGGCCGCCGGCGGGCGCCGACTACCAGGCCAACACCCCACCAACGCGCGGTCGCGAGACACCCCACCAACGCCTGGTCGCGGGGGTGTCCGATCTGATTTCAGCAAAACTACTGCAGTAAGAA | -7.44 ± 0.81 | -8.26 ± 1.7 |
| AATGTTGTTGATGCAACCATAAAGTGATTAAATATAATTATTTATAATCAGCAACTTAACCACAAAACAACCATATATTGATTAGAGACAAAACAACCATAAGTTGATTAAAATGTGAATCGAGTATTTCAGCAAAACTACTGCAGTAAGAA | -1.1 ± 0.76 | -2.17 ± 0.87 |
| AATGTTGTTGATGCAACCATAAAGTGTATAAATATAATTATTTATAATCAGCAACTTAACCACAAAACAACCATATATTGTATAGAGACAAAACAACCATAAGTTGTATAAAATGTGAATCGAGTATTTCAGCAAAACTACTGCAGTAAGAA | -3.62 ± 1.7 | -4.69 ± 1.2 |
| AATGTTGTTGATGCAACCATAACTGTCGCGGGCCGCCGGCGGGCGCCGACTACCAGGCCAACACCCCACCAACGCGCGGTCGCGAGACACCCCACCAACGCCTGGTCGCGGGGGTGTCCGATCTGATTTCAGCAAAACTACTGCAGTAAGAA | < -10 | < -10 |
| AATGTTGTTGATGCAACCATAAGTTGATATTTTATAATTATTTATAATCAGCAACTTAACCACAAAACAACCATAAAATGATAATTAACAAAAGTTGGTATTCAACTATAAAATGTGAATCGAGTATTTCAGCAAAACTACTGCAGTAAGAA | -0.577 ± 0.68 | -2.57 ± 1.1 |
| AATGTTGTTGATGCAACCATAAGTTGATATTTTATAATTATTTATAATCAGCAACTTAACCACAAAACAACCATAAAGTGATATTTAACAAAAGTTGGTATTCAACTATAAAATGTGAATCGAGTATTTCAGCAAAACTACTGCAGTAAGAA | -1.03 ± 1.1 | -2.4 ± 0.96 |
| AATGTTGTTGATGCAACCATAAGTTGATATTTTATAATTATTTATAATCAGCAACTTAACCACAAAACAACCATAAGTTGATATTTTACAAAAGTTGGTATTCAACTATAAAATGTGAATCGAGTATTTCAGCAAAACTACTGCAGTAAGAA | -1.03 ± 2.3 | -3.19 ± 1.4 |
| AATGTTGTTGATGCAACCATAAGTTGATATTTTATAATTATTTATAATCAGCAACTTAACCACAAAACAACCATATATTGATATCTCACAAAAGTTGGTATTCAACTATAAAATGTGAATCGAGTATTTCAGCAAAACTACTGCAGTAAGAA | -1.32 ± 0.89 | -2.64 ± 1.1 |
| AATGTTGTTGATGCAACCATAAGTTGATATTTTATAATTATTTATAATCAGCAACTTAACCACAAAACACCCATAAATTGATAATTAACAAAAGTTGGTATTCAACTATAAAATGTGAATCGAGTATTTCAGCAAAACTACTGCAGTAAGAA | -0.777 ± 0.9 | -2.37 ± 1.2 |
